Data on two molecules can be found in patent US8409836B2, “Treatment of cellulosic material and enzymes useful therein” (Roal Oy, priority 2005, dated 2013).

What all share (assay type): biochemical
A short description of series [1]: Crystalline cellulose (Avicel) hydrolysis by recombinant cellobiohydrolases. The note with it: 70° C., pH 5.0, enzyme 1.4 μM. The procedure: The purified recombinant cellobiohydrolases Ct Cel7A, Ta Cel7A, Ta Cel7A+Tr CBD, Ta Cel7A+Ct CBD, At Cel7A as well as the core version of Ct Cel7A (see below) were tested in equimolar amounts in crystalline cellulose hydrolysis at two temperatures, 45° C. and 70° C.; the purified T. reesei Tr Cel7A and its core version (see below) were used as comparison. The crystalline cellulose (Ph 101, Avicel; Fluka, Bucsh, Switzerland) hydrolysis assays were performed in 1.5 ml tube scale 50 mM sodium acetate, pH 5.0. Avicel was shaken at 45° C. or at 70° C., with the enzyme solution (1.4 μM), and the final volume of the reaction mixture was 325 μl. The hydrolysis was followed up to 24 hours taking samples at six different time points and stopping the reaction by adding 163 μl of stop reagent containing 9 vol of 94% ethanol and 1 vol of 1 M glycine (pH 11). […] The formation of soluble reducing sugars in the supernatant was determined by para-hydroxybenzoicacidhydrazide (PAHBAH) method (Lever, 1972) using a cellobiose standard curve (50 to 1600 μM cellobiose). […] The absorbance of the samples at 405 nm was measured.
The core versions of the cellobiohydrolases harboring a CBD in their native form were obtained as follows: Ct Cel7A and Tr Cel7A were exposed to proteolytic digestion to remove the cellulose-binding domain. […] The product was analysed in SDS-PAGE.

The nature of series [2]: Hydrolysis with CBH enzyme mixtures, Avicel. The note with it: additional enzymes EGII, bG; 48 h, 45° C., pH 5.0. The procedure, abridged:
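Each CBH/Cel7 dosed at 14.5 mg/g substrate dry matter with T. reesei EGII/Cel5A (3.6 mg/g) or with EGI (1.8 mg/g), EGII (1.8 mg/g), xylanase (5000 nkat/g) and AXE (250 nkat/g), plus β-glucosidase (176 nkat/g d.w.). Avicel at 10 mg/ml in 0.05 M sodium acetate, stirred 48 h at 45° C, triplicates; reducing sugars by DNS versus glucose standard.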

Series [3] can be described thus: Hydrolysis with CBH enzyme mixtures, spruce. To be noted: additional enzymes EGII, bG; 48 h, 45° C., pH 5.0. In short, it runs like this:
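Washed SO2-steam pre-treated spruce (10 mg dry matter/ml, 0.05 M sodium acetate) hydrolysed 48 h at 45 °C with each CBH/Cel7 (14.5 mg/g) plus T. reesei EGII (3.6 mg/g), or plus EGI, EGII, xylanase and AXE, all with added β-glucosidase. Reducing sugars measured by DNS against glucose.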

Series [4] can be described thus: Hydrolysis with CBH enzyme mixtures, corn stover. To be noted: additional enzymes EGII, bG, 48 h, 45° C., pH 5.0. In short, it runs like this: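 Purified recombinant CBH/Cel7 (14.5 mg/g substrate dry matter) combined with T. reesei EGII/Cel5A or an EGI/EGII/xylanase/AXE mixture, plus β-glucosidase (176 nkat/g). Washed wet-oxidized corn stover, 10 mg/ml in 0.05 M sodium acetate, stirred 48 h at 45° C, triplicate. Reducing sugars by DNS against glucose, versus inactivated-enzyme references.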

A short description of series [5]: Hydrolysis with CBH enzyme mixtures, willow. To be noted: additional enzymes EGII, bG, 48 h, 45° C., pH 5.0. In short, it runs like this: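 Purified CBH/Cel7 (14.5 mg/g substrate dry matter) combined with T. reesei EGII/Cel5A (3.6 mg/g) or with EGI (1.8 mg/g), EGII (1.8 mg/g), xylanase pI 9 (5000 nkat/g) and AXE (250 nkat/g), plus β-glucosidase (176 nkat/g). Washed steam-pretreated willow, 10 mg/ml in 0.05 M sodium acetate, 45° C., 48 h. Reducing sugars by DNS (glucose standard).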

The nature of series [6]: Xylanase activity on birch xylan. The note with it: purified cellobiohydrolases, 50° C., pH 5.0. The procedure: (§1) The specific activity of the preparations was determined using 4-methylumbelliferyl-β-D-lactoside (MUL), 4-methylumbelliferyl-β-D-cellobioside (MUG2) or 4-methylumbelliferyl-β-D-cellotrioside (MUG3) as substrate (van Tilbeurgh et al., 1988) in 0.05 M sodium citrate buffer pH 5 at 50° C. for 10 min. Endoglucanase and xylanase activities were determined by standard procedures (according to IUPAC, 1987) using carboxymethyl cellulose (CMC) and birch glucuronoxylan (Bailey et al., 1992) as substrates. Specific activity against Avicel was calculated on the basis of reducing sugars formed in a 24 h reaction at 50° C., pH 5.0, with 1% substrate and 0.25 μM enzyme dosage. The protein content of the purified enzyme preparations was measured according to Lowry et al., 1951. To characterize the end products of hydrolysis, soluble sugars liberated in 24 h hydrolysis experiment, as described above, were analysed by HPLC (Dionex). Purified cellobiohydrolase I (CBHI/Cel7A) of Trichoderma reesei was used as a reference.
Acremonium thermophilum ALKO4245 was grown as described in Example 1. The culture supernatant was incubated at 70° C. for 24 hours after which, it was concentrated by ultrafiltration. The pure xylanase was obtained by sequential purification with hydrophobic interaction and cation exchange chromatography followed by gel filtration. The xylanase activity was determined using birch xylan as substrate (procedure of IUPAC 1987). Protein was assayed by BioRad Protein Assay Kit (Bio-Rad Laboratories) using bovine serum albumin as standard.
Thermoascus aurantiacus ALKO4242 was grown as described in Example 1. The pure xylanase was obtained by sequential purification with hydrophobic interaction, anion, and cation exchange chromatography followed by gel filtration. The xylanase activity was determined using birch xylan as substrate (procedure of IUPAC 1987). Protein was assayed by BioRad Protein Assay Kit (Bio-Rad Laboratories) using bovine serum albumin as standard.

Series [7] can be described thus: Endoglucanase activity on carboxymethyl cellulose. The note with it: purified cellobiohydrolases, 50° C., pH 5.0. The procedure:
as §1
Acremonium thermophilum ALKO4245 was grown as described in Example 1. The culture supernatant was incubated at 70° C. for 24 hours after which it was concentrated by ultrafiltration. The pure endoglucanase was obtained by sequential purification with hydrophobic interaction and cation exchange chromatography followed by gel filtration. The endoglucanase activity of the fractions collected during purification was determined using carboxymethyl cellulose (CMC) as substrate (procedure of IUPAC 1987). Protein content was measured by BioRad Assay Kit (Bio-Rad Laboratories) using bovine serum albumine as standard.
Thermoascus aurantiacus ALKO4242 was grown as described in Example 1. The pure endoglucanase was obtained by sequential purification with hydrophobic interaction and anion exchange chromatography followed by gel filtration. The endoglucanase activity of the fractions collected during purification was determined using carboxymethyl cellulose (CMC) as substrate (procedure of IUPAC 1987). Protein content was measured by BioRad Assay Kit (Bio-Rad Laboratories) using bovine serum albumine as standard.

The nature of series [8]: Specific activity on MUG2. To be noted: purified cellobiohydrolases, 50° C., pH 5.0. How it is done: as §1
Series [9] can be described thus: Specific activity on MUG3. The note with it: purified cellobiohydrolases, 50° C., pH 5.0. How it is done:
as §1

Series [10] in a line: Specific activity on MUL. To be noted: purified cellobiohydrolases, 50° C., pH 5.0. The procedure:
as §1

Series [11] can be described thus: Specific activity against Avicel. The note with it: 50° C., pH 5.0, 24 h, 1% substrate, 0.25 μM enzyme. How it is done: as §1
Series [12] in a line: Thermal stability of purified cellobiohydrolases. To be noted: 0.1% BSA, pH 5.0, 60 min, MUL substrate. How it is done: Thermal stability of the purified cellobiohydrolases was determined at different temperatures. The reaction was performed in the presence of 0.1% BSA at pH 5.0 for 60 min using 4-methylumbelliferyl-β-D-lactoside as substrate. C. thermophilum ALKO4265 CBH/Cel7A and A. thermophilum ALKO4245 CBH/Cel7A were stable up to 65° and 60° C., respectively. The T. reesei reference enzyme (CBHI/Cel7A) retained 100% of activity up to 55° C.

Series [13] is described as follows: pH optimum of recombinant CBH/Cel7 proteins. To be noted: McIlvaine buffer, pH range 3.0-8.0, MUL, 50° C., 10 min. How it is done: (§2) The recombinant CBH/Cel7 enzyme preparations were characterized in terms of pH optimum and thermal stability. The pH optimum of the recombinant CBH/Cel7 proteins from Thermoascus aurantiacus, Chaetomium thermophilum, and Acremonium thermophilum were determined in the universal McIlvaine buffer within a pH range of 3.0-8.0 using 4-methylumbelliferyl-β-D-lactoside (MUL) as a substrate (FIG. 3A). The pH optimum for Ct Cel7A and At Cel7A enzymes is at 5.5, above which the activity starts to gradually drop. The pH optimum of the recombinant crude Ta Cel7A is at 5.0 (FIG. 3A). Thermal stability of the recombinant Cel7 enzymes was determined by measuring the MUL activity in universal McIlvaine buffer at the optimum pH with reaction time of 1 h.

The nature of series [14]: Thermal stability of recombinant Cel7 enzymes. To be noted: MUL activity, optimum pH, reaction time 1 h. The procedure: as §2

B1: Ta Cel7A + Tr CBD: Thermoascus aurantiacus Cel7A fused to linker and CBD of Trichoderma reesei CBHI/Cel7A, SEQ ID NO: 28 (protein)
chain: MYQRALLFSFFLAAARAQQAGTVTAENHPSLTWQQCSSGGSCTTQNGKVVIDANWRWVHTTSGYTNCYTGNTWDTSICPDDVTCAQNCALDGADYSGTYGVTTSGNALRLNFVTQSSGKNIGSRLYLLQDDTTYQIFKLLGQEFTFDVDVSNLPCGLNGALYFVAMDADGGLSKYPGNKAGAKYGTGYCDSQCPRDLKFINGQANVEGWQPSANDPNAGVGNHGSCCAEMDVWEANSISTAVTPHPCDTPGQTMCQGDDCGGTYSSTRYAGTCDPDGCDFNPYRQGNHSFYGPGQIVDTSSKFTVVTQFITDDGTPSGTLTEIKRFYVQNGKVIPQSESTISGVTGNSITTEYCTAQKAAFGDNTGFFTHGGLQKISQALAQGMVLVMSLWDDHAANMLWLDSTYPTDADPDTPGVARGTCPTTSGVPADVESQYPNSYVIYSNIKVGPIGSTGNPSGGNPPGGNPPGTTTTRRPATTTGSSPGPTQSHYGQCGGIGYSGPTVCASGTTCQVLNPYYSQCL
For B1, the “Avicel hydrolysis as compared to T. reesei Cel7A” value in series [1] was “superior”. For the same molecule, the “Hydrolysis products as reducing sugars, Avicel” value in series [2] came to 5.8 mg/mL. Further, the “Hydrolysis products as reducing sugars, SPRUCE” value in series [3] was found to be 4.0 mg/mL. Also, the “Hydrolysis products as reducing sugars, WOCS” value in series [4] (EGI, XYL, AXE) is 7.2 mg/mL; in series [4], 4.4 mg/mL. Further, the “Hydrolysis products as reducing sugars, WILLOW” value turned out to be 5.9 mg/mL in series [5] (EGI, XYL, AXE) and 4.0 mg/mL in [5].

B2: At Cel7A: cellobiohydrolase of Acremonium thermophilum ALKO4245, gene At cel7A, amino acid SEQ ID NO: 6, with CBD (protein)
chain: MYTKFAALAALVATVRGQAACSLTAETHPSLQWQKCTAPGSCTTVSGQVTIDANWRWLHQTNSSTNCYTGNEWDTSICSSDTDCATKCCLDGADYTGTYGVTASGNSLNLKFVTQGPYSKNIGSRMYLMESESKYQGFTLLGQEFTFDVDVSNLGCGLNGALYFVSMDLDGGVSKYTTNKAGAKYGTGYCDSQCPRDLKFINGQANIDGWQPSSNDANAGLGNHGSCCSEMDIWEANKVSAAYTPHPCTTIGQTMCTGDDCGGTYSSDRYAGICDPDGCDFNSYRMGDTSFYGPGKTVDTGSKFTVVTQFLTGSDGNLSEIKRFYVQNGKVIPNSESKIAGVSGNSITTDFCTAQKTAFGDTNVFEERGGLAQMGKALAEPMVLVLSVWDDHAVNMLWLDSTYPTDSTKPGAARGDCPITSGVPADVESQAPNSNVIYSNIRFGPINSTYTGTPSGGNPPGGGTTTTTTTTTSKPSGPTTTTNPSGPQQTHWGQCGGQGWTGPTVCQSPYTCKYSNDWYSQCL
For B2, the “Specific activity, Xylan” value in series [6] was determined as 11.3 nkat/mg. Also, the “Specific activity, CMC” value in series [7] came out at 26.2 nkat/mg. Moreover, the “Specific activity, MUG2” value in series [8] was 9.2 nkat/mg. In addition, the “Specific activity, MUG3” value in series [9] turned out to be 1.3 nkat/mg. Moreover, the “Specific activity, MUL” value in series [10] is listed as 21.5 nkat/mg. In addition, the “Specific activity, Avicel” value in [11] was found to be 1.8 nkat/mg. Moreover, the “Thermal stability: temperature up to which stable / 100% of activity retained” value in series [12] is not above 60 °C. The pH optimum in [13] was 5.5. The “Thermal stability at the higher temperatures (≧65° C.)” value in series [14] is “clearly less stable”. Also, in [2], the “Hydrolysis products as reducing sugars, Avicel” value turned out to be 5.3 mg/mL. Besides, the “Hydrolysis products as reducing sugars, SPRUCE” value in [3] was determined as 3.3 mg/mL. The “Hydrolysis products as reducing sugars, WOCS” value is 6.4 mg/mL in series [4] (EGI, XYL, AXE) and 4.5 mg/mL in series [4]. In addition, the “Hydrolysis products as reducing sugars, WILLOW” value in series [5] (EGI, XYL, AXE) came out at 5.4 mg/mL; in [5], 3.3 mg/mL.
